# Results taken from PMC5686127 (2017).
# Legend:
# [1] = biological target: CHD4 linker-PHD2 (aa 414–503) (human, UniProt Q14839 414-503); test: 150 mM NaCl
# CHD4 PHD1/2 (aa 361–503) = CHD4 PHD1/2 (aa 361–503) (human, UniProt Q14839 361-503); test: 150 mM NaCl
# CHD4 PHD1 (aa 362–417) = CHD4 PHD1 (aa 362–417) (human, UniProt Q14839 362-417); test: 150 mM NaCl
# [2] = biological target: T1, CHD4 PHD1-linker (aa 361–443) (human, UniProt Q14839 361-443); test: 150 mM NaCl
# CHD4 PHD2 (443–498) = CHD4 PHD2 (443–498) (human, UniProt Q14839 443-498); test: 150 mM NaCl
# CHD4 PHD2 (443–498), sequence (Q14839 443-498): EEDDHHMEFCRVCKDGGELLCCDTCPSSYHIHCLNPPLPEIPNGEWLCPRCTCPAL
# [3] = biological target: T1, CHD4 PHD1-linker (aa 361–443); test: 75 mM NaCl
# T1 sequence (Q14839 361-443): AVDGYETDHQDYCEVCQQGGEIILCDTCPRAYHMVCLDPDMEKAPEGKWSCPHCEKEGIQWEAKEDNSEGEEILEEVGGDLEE
# CHD4 PHD1 (aa 362–417), sequence (Q14839 362-417): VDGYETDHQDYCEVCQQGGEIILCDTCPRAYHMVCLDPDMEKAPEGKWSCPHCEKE
# CHD4 linker-PHD2 (aa 414–503), sequence (Q14839 414-503): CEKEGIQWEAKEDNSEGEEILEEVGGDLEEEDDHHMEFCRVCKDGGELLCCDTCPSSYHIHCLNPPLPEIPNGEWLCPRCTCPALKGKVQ
# CHD4 PHD1/2 (aa 361–503), sequence (Q14839 361-503): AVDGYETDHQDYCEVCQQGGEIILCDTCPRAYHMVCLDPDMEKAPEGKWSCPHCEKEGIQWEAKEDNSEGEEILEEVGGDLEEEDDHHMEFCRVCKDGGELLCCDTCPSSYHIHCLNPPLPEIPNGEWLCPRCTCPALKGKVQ
binder,measurement,setting,value
ARTKQTARKSTG [histone H3 peptide (aa 1–12)],Kd,[1],0.27 µM
same,Kd,CHD4 PHD1/2 (aa 361–503),0.22 µM
same,Kd,CHD4 PHD1 (aa 362–417),18 µM
same,Kd,[2],0.5 µM
same,Kd,CHD4 PHD2 (443–498),3 µM
same,Kd,[3],0.3 µM
